Data on 94 variants can be found in the supplement of paper PMC10567573.

The labels stand for the following.
B1: ESRRG (parent)
chain: YSCPATNECEITKRRRKSCQACRF
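Further: lentivirally expressed fusions sorted by FACS into six bins by GFP to DsRed ratio, PSI derived from sequencing read proportions per bin multiplied by bin number.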

Variants of B1 are the subject of this series. The series is described as follows: protein stability index of a GFP-peptide fusion (GPS, HEK-293T) (PSI 1-6); higher = more stable. The settings on record: c terminus: a fixed tail appended.
In the case of YSCPATNECEISKRRRKSCQACRF [T12S], the protein stability index came to 3.46.

Consider YSCPATNECEIYKRRRKSCQACRF [T12Y], for which the protein stability index is 2.69.

For the variant YSCPATNECEIEKRRRKSCQACRF [T12E], the protein stability index was 3.75.

Turning to YSCPATNECEIGKRRRKSCQACRF [T12G], the protein stability index came out at 3.41.

Consider YSCPATNECEINKRRRKSCQACRF [T12N], for which the protein stability index came to 3.59.

In the case of YSCPATNECEITKLRRKSCQACRF [R14L], the protein stability index was found to be 2.81.

YSCPATNECEITKDRRKSCQACRF [R14D]: the protein stability index worked out at 3.76.

On to YSCPATNECEITKPRRKSCQACRF [R14P], for which the protein stability index came out at 3.13.

Regarding YSCPATNECEITKTRRKSCQACRF [R14T], the protein stability index stood at 3.42.

Consider YSCPATNECEITKNRRKSCQACRF [R14N], for which the protein stability index was determined as 3.63.

For YSCPATNECEITKIRRKSCQACRF [R14I], the protein stability index is 3.03.

As to YSCPATNECEITKCRRKSCQACRF [R14C], the protein stability index came to 4.61.

Turning to YSCPATNECEITKKRRKSCQACRF [R14K], the protein stability index is 3.52.

On to YSCPATNECEITKERRKSCQACRF [R14E], for which the protein stability index came out at 3.62.

As to YSCPATNECEITKFRRKSCQACRF [R14F], the protein stability index turned out to be 3.19.

In the case of YSCPATNECEITKSRRKSCQACRF [R14S], the protein stability index turned out to be 3.6.

Turning to YSCPATNECEITKVRRKSCQACRF [R14V], the protein stability index came out at 3.03.

With YSCPATNECEITKYRRKSCQACRF [R14Y], the protein stability index was 3.17.

With YSCPATNECEITKQRRKSCQACRF [R14Q], the protein stability index came out at 3.48.

On to YSCPATNECEITKMRRKSCQACRF [R14M], for which the protein stability index came out at 3.09.

As for YSCPATNECEITKWRRKSCQACRF [R14W], the protein stability index came out at 3.11.

With YSCPATNECEITKARRKSCQACRF [R14A], the protein stability index was 3.51.

Consider YSCPATNECEITKHRRKSCQACRF [R14H], for which the protein stability index was 4.23.

For the variant YSCPATNECEITKGRRKSCQACRF [R14G], the protein stability index was 3.7.

As to YSCPATNECEKTKRRRKSCQACRF [I11K], the protein stability index amounted to 3.25.

In the case of YSCPATNECEPTKRRRKSCQACRF [I11P], the protein stability index was found to be 3.58.

Regarding YSCPATNECEHTKRRRKSCQACRF [I11H], the protein stability index is 4.47.

Turning to YSCPATNECENTKRRRKSCQACRF [I11N], the protein stability index came to 3.55.

Consider YSCPATNECEVTKRRRKSCQACRF [I11V], for which the protein stability index worked out at 3.25.

YSCPATNECESTKRRRKSCQACRF [I11S]: the protein stability index was 3.63.

YSCPATNECETTKRRRKSCQACRF [I11T]: the protein stability index stood at 3.69.

In the case of YSCPATNECEQTKRRRKSCQACRF [I11Q], the protein stability index was found to be 3.51.

As to YSCPATNECEFTKRRRKSCQACRF [I11F], the protein stability index turned out to be 3.26.

Take YSCPATNECEGTKRRRKSCQACRF [I11G]: the protein stability index worked out at 3.47.

On to YSCPATNECECTKRRRKSCQACRF [I11C], for which the protein stability index came out at 3.83.

YSCPATNECEMTKRRRKSCQACRF [I11M]: the protein stability index came to 3.14.

In the case of YSCPATNECEETKRRRKSCQACRF [I11E], the protein stability index turned out to be 3.95.

On to YSCPATNECEYTKRRRKSCQACRF [I11Y], for which the protein stability index was found to be 3.04.

Regarding YSCPATNECERTKRRRKSCQACRF [I11R], the protein stability index came out at 3.37.

YSCPATNECEATKRRRKSCQACRF [I11A]: the protein stability index was 3.39.

Take YSCPATNECEWTKRRRKSCQACRF [I11W]: the protein stability index worked out at 3.44.

Take YSCPATNECELTKRRRKSCQACRF [I11L]: the protein stability index was 2.88.

Take YSCPATNECEDTKRRRKSCQACRF [I11D]: the protein stability index amounted to 3.41.

Consider YSCPATNECEITKRRRQSCQACRF [K17Q], for which the protein stability index is 3.29.

On to YSCPATNECEITKRRRLSCQACRF [K17L], for which the protein stability index is 3.06.

As for YSCPATNECEITKRRRTSCQACRF [K17T], the protein stability index was 2.92.

Regarding YSCPATNECEITKRRRESCQACRF [K17E], the protein stability index was 3.63.

Consider YSCPATNECEITKRRRCSCQACRF [K17C], for which the protein stability index was 4.5.

Regarding YSCPATNECEITKRRRASCQACRF [K17A], the protein stability index is 3.17.

As for YSCPATNECEITKRRRYSCQACRF [K17Y], the protein stability index was 2.35.

On to YSCPATNECEITKRRRNSCQACRF [K17N], for which the protein stability index is 3.25.

As to YSCPATNECEITKRRRRSCQACRF [K17R], the protein stability index was found to be 3.31.

Consider YSCPATNECEITKRRRHSCQACRF [K17H], for which the protein stability index turned out to be 3.82.

YSCPATNECEITKRRRWSCQACRF [K17W]: the protein stability index stood at 2.83.

YSCPATNECEITKRRRSSCQACRF [K17S]: the protein stability index was 3.

Take YSCPATNECEITKRRRDSCQACRF [K17D]: the protein stability index stood at 3.37.

With YSCPATNECEITKRRRISCQACRF [K17I], the protein stability index came out at 3.51.

YSCPATNECEITKRRRPSCQACRF [K17P]: the protein stability index came out at 2.9.

Take YSCPATNECEITKRRRVSCQACRF [K17V]: the protein stability index amounted to 2.97.

Regarding YSCPATNECEITKRRRFSCQACRF [K17F], the protein stability index was determined as 2.69.

On to YSCPATNECEITKRRRMSCQACRF [K17M], for which the protein stability index is 3.06.

With YSCPATNECEITKRRRGSCQACRF [K17G], the protein stability index was 3.51.

Consider YSCPATNECEITKRKRKSCQACRF [R15K], for which the protein stability index turned out to be 2.91.

Consider YSCPATNECEITKRERKSCQACRF [R15E], for which the protein stability index is 3.37.

As to YSCPATNECEITKRLRKSCQACRF [R15L], the protein stability index was found to be 2.79.

As to YSCPATNECEITKRNRKSCQACRF [R15N], the protein stability index worked out at 3.62.

YSCPATNECEITKRHRKSCQACRF [R15H]: the protein stability index came out at 4.16.

For the variant YSCPATNECEITKRIRKSCQACRF [R15I], the protein stability index came out at 3.32.

In the case of YSCPATNECEITKRFRKSCQACRF [R15F], the protein stability index is 2.96.

Regarding YSCPATNECEITKRCRKSCQACRF [R15C], the protein stability index is 3.46.

On to YSCPATNECEITKRSRKSCQACRF [R15S], for which the protein stability index amounted to 3.48.

On to YSCPATNECEITKRPRKSCQACRF [R15P], for which the protein stability index was found to be 3.28.

As to YSCPATNECEITKRQRKSCQACRF [R15Q], the protein stability index came to 3.38.

Regarding YSCPATNECEITKRARKSCQACRF [R15A], the protein stability index was found to be 3.33.

Take YSCPATNECEITKRMRKSCQACRF [R15M]: the protein stability index is 2.96.

Consider YSCPATNECEITKRWRKSCQACRF [R15W], for which the protein stability index was determined as 2.81.

YSCPATNECEITKRTRKSCQACRF [R15T]: the protein stability index was found to be 3.22.

As for YSCPATNECEITKRVRKSCQACRF [R15V], the protein stability index is 3.22.

Turning to YSCPATNECEITKRGRKSCQACRF [R15G], the protein stability index is 3.91.

For the variant YSCPATNECEITKRYRKSCQACRF [R15Y], the protein stability index was determined as 3.34.

As to YSCPATNECEITKRDRKSCQACRF [R15D], the protein stability index was 4.01.

Regarding YSCPATNECEITKRRRKSQQACRF [C19Q], the protein stability index was 3.78.

As to YSCPATNECEITKRRRKSAQACRF [C19A], the protein stability index came out at 3.83.

As for YSCPATNECEITKRRRKSIQACRF [C19I], the protein stability index is 2.94.

On to YSCPATNECEITKRRRKSLQACRF [C19L], for which the protein stability index stood at 3.14.

On to YSCPATNECEITKRRRKSDQACRF [C19D], for which the protein stability index is 4.09.

With YSCPATNECEITKRRRKSMQACRF [C19M], the protein stability index worked out at 3.42.

In the case of YSCPATNECEITKRRRKSEQACRF [C19E], the protein stability index is 3.84.

Consider YSCPATNECEITKRRRKSKQACRF [C19K], for which the protein stability index worked out at 3.94.

With YSCPATNECEITKRRRKSNQACRF [C19N], the protein stability index is 3.82.

As for YSCPATNECEITKRRRKSPQACRF [C19P], the protein stability index came out at 3.35.

For the variant YSCPATNECEITKRRRKSHQACRF [C19H], the protein stability index came to 3.69.

In the case of YSCPATNECEITKRRRKSFQACRF [C19F], the protein stability index stood at 3.17.

Consider YSCPATNECEITKRRRKSGQACRF [C19G], for which the protein stability index amounted to 3.55.
